# Residue numbers refer to the chain shown, from its start.
# B1: P-B3: anti-Tie1 antibody clone; variable domains in FIGS. 12A and 12B (antibody, V domains shown)
# VH: EVQLLESGGGLVQPGGSLRLSCAASGFTFSRYGMHWVRQAPGKGLEWVSVISPSGGMTYYADSVKGRFTISRDNTKNTLYLQMNSLRAEDTAVYYCARVGATGPFDIWGQGTMVTVSSASTKGPSVFPLAP
# VL: QDIQMTQSPATLSLSPGERATLSCRASQSVSTYLAWYQQKPGQAPRLLIYDASNRATGIPGRFSGSGSGTDFTLTISSLEAEDFAVYYCQQRSSWPITFGQG
# B2: P-C6: anti-Tie1 antibody clone; variable domains in FIGS. 13A and 13B (antibody, V domains shown)
# VH: EVQLLESGGGLVQPGGSLRLSCAASGFTFSHYGMTWVRQAPGKGLEWVSVISPSGGQTGYADSVKGRFTISRDNSKNTLYLQMNSLRAEDTAVYYCAGGGYAAFDYWGQGTLVTVSSASTKGPSVFPLAPSSKSTSGGTAALG
# VL: B1 VL with T32S, G61A, A81P, S94N, I97L, Q101G
# B3: A2: anti-Tie1 antibody clone; variable domains in FIGS. 20A and 20B (antibody, V domains shown)
# VH: EVQLLESGGGLVQPGGSLRLSCAASGFTFSRYTMMWVRQAPGKGLEWVSGIYPSGGVTLYADSVKGRFTISRDNSKNTLYLQMNSLRAEDTAVYYCARVNYYDSSGYGPIAPGLDYWGQGTLVTVSSASTKGPSVFP
# VL: HSAQDIQMTQSPGTLSLSPGERATLSCRASRSVIISYVAWYQQKPGQAPRLLIYGASTRATGIPDRFSGSGSGTDFTLTISRLEPEDFAVYFCQLYGRSPRIIFGQGTRLEIK
# B4: P-B1: anti-Tie1 antibody clone; variable domains in FIGS. 11A and 11B (antibody, V domains shown)
# VH: EVQLLESGGGLVQPGGSLRLSCAASGFTFSRYPMVWVRQAPGKGLEWVSVISPSGGQTFYADSVKGRFTISRDNSKNTLYLQMNSLRAEDTAVYYCARGVLTTAFDIWGQGTMVTVSSASTKGPSVFPLAPSSK
# VL: QDIQMTQSPSSLSASVGDRVTITCRASQNINSYLNWYQQKPGQAPKLLIYAASNLETAVPSRFSGSGSGTDFTLTISSLQPEDFATYYCQQFNTYPLTFGGG
# B5: C7: anti-Tie1 antibody clone; variable domains in FIGS. 25A and 25B (antibody, V domains shown)
# VH: EVQLLESGGGLVQPGGSLRLSCAASGFTFSRYVMYWVRQAPGKGLEWVSVIYPSGGATYYADSVKGRFTISRDNSKNTLYLQMNSLRAEDTAVYYCARRGSSGAFDYWGQGTLVTVSSASTKGPSVFP
# VL: HSAQSVLTQPASVSGSPGQSITISCTGTSSDIGRYNYASWYQQRPGKSPKLLIYEVSDRPSGVSNRFSGSKSGNTASLIISGLQAEDEADYYCSSYSSTNSLQVVFGGGTKLSVLGQPKAAPSVTLFPPSSEELQANKATLVCL
# B6: A10: anti-Tie1 antibody clone; variable domains in FIGS. 21A and 21B (antibody, V domains shown)
# VH: EVQLLESGGGLVQPGGSLRLSCAASGFTFSNYVMVWVRQAPGKGLEWVSGIYPSGGHTKYADSVKGRFTISRDNSKNTLYLQMNSLRAEDTAVYYCARVNYYDSSGYGPIAPGLDYWGQGTLV
# VL: HSAQDIQMTQSPGTLSLSPGERATLFCRASQRVTSNSLAWYQQRPGQAPRLLIYDASTRATGIPDRFSGSGSGRDFTLTISRLEPEDFAVYYCQRYGSSVLYSFGQGTKLEIT
# B7: M0044B08: Tie1-binding antibody; LC SEQ ID NO:180, HC SEQ ID NO:182 (antibody, V domains shown)
# VH: EVQLLESGGGLVQPGGSLRLSCAASGFTFSAYGMGWVRQAPGKGLEWVSVISPSGGQTSYADSVKGRFTISRDNSKNTLYLQMNSLRAEDTALYYCAGGDRYGPLHYWGQGTLVTVSS
# VL: QDIQMTQSPSFLSASVGDRVTISCRASQYISIYLNWYQQRPGEAPKLLINAASSLQSGDPSRFSGSGSGTDFTLTINSLQPDDFATYYCQQYKSYPLTFGEGTKVEIK
# modifications: Antibody
# B8: M0056G08: Tie1-binding antibody; LC SEQ ID NO:568, HC SEQ ID NO:570 (antibody, V domains shown)
# VH: EVQLLESGGGLVQPGGSLRLSCAASGFTFSHYGMWWVRQAPGKGLEWVSVISPSGGQTNYADSVKGRFTISRDNSKNTLYLQMNSLRAEDTAVYYCAKGQIHGGNLASWGQGTLVTVSS
# VL: QDIQMTQSPGTLSLSPGERATLSCRASQSISSSYLAWYQQKPGQAPRLLLYGTSNRATGIPDRFSGSGSGTDFTLTISRLEPEDFALYYCQQRYKWPLTFGPGTKVDFK
# modifications: Antibody
# B9: M0045B03: Tie1-binding antibody; LC SEQ ID NO:260, HC SEQ ID NO:262 (antibody, V domains shown)
# VH: EVQLLESGGGLVQPGGSLRLSCAASGFTFSQYPMIWVRQAPGKGLEWVSVISPSGGHTSYADSVKGRFTISRDNSKNTLYLQMNSLRAEDTAVYYCARIQYYGGAFDIWGQGKMVTVSS
# VL: QDIQMTQSPDTLSLSPGERATLSCRASQSISRYLAWYQQRPGQAPSLLIYDASERAAGIPARFSGSGSGTDFTLTISSLEPEDFAVYYCQQRGNWPLTFGGGTKVDIR
# modifications: Antibody
# B10: M0053F04: Tie1-binding antibody; LC SEQ ID NO:392, HC SEQ ID NO:394 (antibody, V domains shown)
# VH: EVQLLESGGGLVQPGGSLRLSCAASGFTFSGYGMYWVRQAPGKGLEWVSVISPSGGYTHYADSVKGRFTISRDNSKNTLYLQMNSLRAEDTAVYYCARAYSSGWYLDYWGQGTLVTVSS
# VL: QDIQMTQSPATLSLSPGERATLSCRASQSVSSYLAWYQQKPGQAPRLLIYDTSNRATGIPARFSGSGSGTDFTLTISSLEPEDFAVYYCQQRSNWPITFGQGTRLEIK
# modifications: Antibody
# Biological target: T1, Tie1-EpoR chimeric receptor (UniProt P14753+P35590)
# T1 construct: PCR amplified extracellular part of human Tie1 (bp 37-2316 of X60975); expressed in transfected cells
# T1 sequence (P35590+P14753 with tags, fused parts or gaps): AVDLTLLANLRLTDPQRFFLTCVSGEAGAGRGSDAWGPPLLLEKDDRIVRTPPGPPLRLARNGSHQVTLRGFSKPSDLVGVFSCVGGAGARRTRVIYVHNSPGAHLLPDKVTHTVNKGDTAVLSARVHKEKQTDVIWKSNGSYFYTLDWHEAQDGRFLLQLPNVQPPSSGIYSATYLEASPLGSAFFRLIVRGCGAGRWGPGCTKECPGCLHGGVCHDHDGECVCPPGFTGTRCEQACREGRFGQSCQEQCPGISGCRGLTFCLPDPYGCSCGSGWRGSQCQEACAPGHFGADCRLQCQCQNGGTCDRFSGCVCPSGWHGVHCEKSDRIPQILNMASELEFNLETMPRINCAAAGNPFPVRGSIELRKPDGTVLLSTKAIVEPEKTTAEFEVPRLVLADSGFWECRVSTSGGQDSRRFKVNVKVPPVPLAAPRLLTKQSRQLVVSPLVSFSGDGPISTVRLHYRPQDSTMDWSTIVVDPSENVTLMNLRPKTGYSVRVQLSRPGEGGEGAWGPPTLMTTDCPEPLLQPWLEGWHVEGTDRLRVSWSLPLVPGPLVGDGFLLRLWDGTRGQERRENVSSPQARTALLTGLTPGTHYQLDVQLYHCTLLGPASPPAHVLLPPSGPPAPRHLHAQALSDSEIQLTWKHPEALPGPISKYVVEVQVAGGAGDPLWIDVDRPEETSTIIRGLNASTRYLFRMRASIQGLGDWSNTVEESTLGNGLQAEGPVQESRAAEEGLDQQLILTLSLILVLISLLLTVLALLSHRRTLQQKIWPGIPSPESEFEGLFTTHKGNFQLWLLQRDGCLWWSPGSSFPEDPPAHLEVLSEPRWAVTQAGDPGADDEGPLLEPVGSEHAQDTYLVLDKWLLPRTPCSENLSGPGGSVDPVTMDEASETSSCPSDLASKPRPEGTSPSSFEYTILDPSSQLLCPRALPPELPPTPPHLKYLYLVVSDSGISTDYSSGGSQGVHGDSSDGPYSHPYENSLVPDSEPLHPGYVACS
# Assay: BaF3 bioassay (Tie1/EpoR chimeric BaF3 cell assay)
# Type: cell-based, human
# Details: 100 ng/ml E3 IgG together with 100 (1:1) or 500 (1:5) ng/ml test antibody
# Description: BaF3 bioassay. To generate Tie1-EpoR expressing BaF3 cells for the bioassay, BaF3 pre-B cells were stably transfected with a nucleic acid that expresses chimeric receptor containing the extracellular domain of human Tie1 fused with the transmembrane and cytoplasmic domains of the mouse erythropoietin receptor. The nucleic acid used was a Tie1-EpoR chimeric cDNA in a pEF-BOS expression vector. The nucleic acid encoding the chimeric receptor was constructed by cloning the PCR amplified extracellular part of human Tie1 (bp 37-2316 of X60975) as EcoRI-BglII fragment into mEpoR-pcDNA vector. The cDNA encoding for the chimeric receptor consisting of the extracellular part of Tie1 fused with the transmembrane and intracellular domains of EpoR was subcloned into the pEF-BOS expression vector. Vector was linearized and co-transfected into BaF3 cells with pcDNA3.1(+) Zeo vector (Invitrogen). Stable cell pools were generated by selection with 250 μg/ml Zeocin. The expression of Tie1/EpoR fusion protein in several clones was analyzed by Western blotting with an antibody against EpoR.
# To perform the assays, BaF3 cells expressing the Tie1-EpoR chimera were split in 96-well microtiter plates at 50 000 cells/well in the presence of the indicated concentrations of anti-Tie1 antibodies. The E3 antibody used in this study was the germ-lined E3 antibody (DX-2220). As controls, Zeocin resistant pools not expressing the Tie1-EpoR were used. After 48 h, the viability of the cells was determined by adding MTT (3-(4,5-dimethylthiazol-2-yl)-2,5-diphenyl tetrazolium bromide (Sigma), 0.5 mg/ml), followed by further 2 h of culture, addition of an equal volume of cell lysis solution (10% SDS, 10 mM HCl) and incubation overnight at 37° C. Absorbance was measured at 540 nm.
# Stimulation and inhibition of Tie1 in Tie1-EpoR transfected BaF3 cells and human primary endothelial cells. Although no ligand for Tie1 has been identified, we used the following efficient screening method for Tie1-binding proteins. Interleukin-3 dependent pre-B-lymphocyte (BaF3) cells were transfected with a construct that expresses a Tie1-EpoR fusion protein. Since BaF3 cells are IL-3 dependent, they die unless IL-3 is provided. However, Tie-EpoR receptor expressing BaF3 cells can survive and proliferate if the medium contains a Tie1-binding protein, either a natural ligand or an artificial mimetic. Cell survival can be quantitated, e.g., by colorimetric MTT-assay, which measures mitochondrial activity.
# To determine if any of the other monoclonal antibodies tested inhibit the survival effect of E3 IgG in Tie1-EpoR BaF3 assay, antibodies were studied in combination with E3 IgG. A concentration of 100 ng/ml of E3 IgG together with 100 (1:1) or 500 (1:5) ng/ml of the other antibodies were used and the viability of Tie1-EpoR cells was measured.
row,Molecule,effect on the survival effect of E3 IgG in Tie1-EpoR BaF3 assay
1,B1,inhibited the viability effect of E3 IgG to some extent
2,B2,inhibited the viability effect of E3 IgG to some extent
3,B3,inhibited the viability effect of E3 IgG to some extent
4,B4,inhibited the viability effect of E3 IgG to some extent
5,B5,promoted the survival of Tie1/EpoR BaF3 cells in combination with E3 IgG
6,B6,inhibited the viability effect of E3 IgG to some extent

# Biological target: Tie1 (Homo sapiens, UniProt P35590)
# Assay: Competition with E3 for binding to Tie1
# Details: not given
# Tie1, sequence (P35590 22-1138): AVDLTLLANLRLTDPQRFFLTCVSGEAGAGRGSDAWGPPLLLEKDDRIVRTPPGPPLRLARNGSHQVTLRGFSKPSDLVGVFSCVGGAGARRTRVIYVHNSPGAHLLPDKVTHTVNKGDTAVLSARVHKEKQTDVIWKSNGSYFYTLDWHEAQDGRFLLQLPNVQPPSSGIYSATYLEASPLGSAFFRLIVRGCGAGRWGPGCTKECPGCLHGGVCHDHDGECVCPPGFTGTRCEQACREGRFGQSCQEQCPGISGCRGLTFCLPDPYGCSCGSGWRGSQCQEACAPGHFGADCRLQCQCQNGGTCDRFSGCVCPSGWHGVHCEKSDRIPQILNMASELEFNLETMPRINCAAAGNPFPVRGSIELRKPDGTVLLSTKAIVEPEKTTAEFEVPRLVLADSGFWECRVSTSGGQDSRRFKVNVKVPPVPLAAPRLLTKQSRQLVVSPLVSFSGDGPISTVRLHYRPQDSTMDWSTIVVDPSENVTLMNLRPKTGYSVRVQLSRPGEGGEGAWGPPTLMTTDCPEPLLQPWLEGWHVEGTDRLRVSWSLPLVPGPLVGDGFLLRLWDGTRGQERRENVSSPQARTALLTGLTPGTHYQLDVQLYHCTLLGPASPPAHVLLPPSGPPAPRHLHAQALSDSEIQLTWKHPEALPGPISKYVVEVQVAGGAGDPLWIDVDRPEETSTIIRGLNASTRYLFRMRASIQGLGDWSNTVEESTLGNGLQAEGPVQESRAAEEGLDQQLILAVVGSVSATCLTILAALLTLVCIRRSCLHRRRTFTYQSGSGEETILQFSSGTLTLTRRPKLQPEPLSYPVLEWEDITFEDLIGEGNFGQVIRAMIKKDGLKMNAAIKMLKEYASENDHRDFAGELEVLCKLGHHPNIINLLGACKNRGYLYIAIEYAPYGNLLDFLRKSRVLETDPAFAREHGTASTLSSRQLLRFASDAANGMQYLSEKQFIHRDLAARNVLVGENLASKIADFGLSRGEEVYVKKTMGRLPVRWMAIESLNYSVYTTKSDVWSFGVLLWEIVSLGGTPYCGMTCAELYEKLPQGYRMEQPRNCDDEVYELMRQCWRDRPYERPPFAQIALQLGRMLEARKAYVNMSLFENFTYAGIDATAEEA
row,Molecule,competition with E3 for binding to Tie1
1,B7,competes with E3 for binding to Tie1
2,B8,competes with E3 for binding to Tie1
3,B9,competes with E3 for binding to Tie1
4,B10,competes with E3 for binding to Tie1

# Reference: patent publication US20100196361A1, “Method of inhibition of vascular development using an antibody” (DYAX CORP., priority 2003, published 2010)
